Target: T1, Human IL-3Rα/CD123蛋白 (human, UniProt P26951 19-305, limits assumed)
T1 construct: Soluble antigen in the mobile phase of the SPR run
T1 sequence (looked up): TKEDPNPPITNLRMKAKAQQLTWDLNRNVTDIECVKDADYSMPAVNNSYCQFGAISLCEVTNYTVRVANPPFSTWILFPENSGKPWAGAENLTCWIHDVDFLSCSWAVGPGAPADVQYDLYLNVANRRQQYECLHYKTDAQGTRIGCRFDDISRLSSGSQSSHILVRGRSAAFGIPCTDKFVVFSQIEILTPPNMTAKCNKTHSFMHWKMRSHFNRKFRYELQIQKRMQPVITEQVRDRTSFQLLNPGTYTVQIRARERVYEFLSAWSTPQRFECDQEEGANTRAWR
Test: SPR (Biacore), antibody immobilised on chip, antigen in mobile phase

Kd: 480 pM | koff: 0.000174 s⁻¹ | kon: 362000 M⁻¹ s⁻¹
B1: CD123-89 VHH-mIgG2a Fc抗体 (anti-CD123 VHH CD123-89 with mouse Fc tag) (Fc fusion)
chain: EVQLVESGGDSVQTGGSLRLSCLASGYIGSGYCLAWFRQAPGKERKKVANIVIGVGRPYYADSVKGRFTISQDNAKNTLYLQMNSLKPEDTAMYYCAASKFGSWSCGDYNYWGQGTQVTVSS
notes: Expressed in 293E cells from C-4pCP.Stuffer VHH-mCg2a-FC and purified on MabSelect SuRe; also called 抗CD123 VHH抗体CD123-89; 重组CD123-89抗体; not shown: mouse IgG2a Fc tag from vector C-4pCP.Stuffer VHH-mCg2a-FC

— CN112500487A (HUADAO SHANGHAI BIOMEDICAL CO LTD, dated 2021)
